Molecular target: 2392/10 ZFP-VP16 fusion (Artificial Sequence)
Assay: cell_activity; Epo secretion, 2392/10-7 CHO cells; additional three-fold over CMV promoter
From the text: Three different erythropoietin (Epo)-expressing constructs were constructed. In the first, Epo expression was controlled by a CMV promoter fused to a β-globin intron (CMV). In the second, Epo expression was controlled by a CMV promoter containing ten upstream copies of the 2392/10 binding site, fused to a β-globin intron (CMVz10, Example 6). In the third, Epo expression was controlled by a SRα promoter with six additional copies of the 2392/10 binding site immediately upstream of the promoter (SRαZ6, Example 5). The three constructs were transiently transfected into either parental DG44 CHO cells or the ZFP-expressing 2392/10-7 cell line. After 24 hours, Epo secretion was measured by ELISA.

B1: CMVz10 promoter target-site insert (dsDNA)
DNA 1: ACGCGTTCATTCCACAGCTCTCATTCCACAGCTCTCATTCCACAGCTCTCATTCCACAGCTCTCATTCCACAGCTCTCATTCCACAGCTCTCATTCCACAGCTCTCATTCCACAGCTCTCATTCCACAGCTCTCATTCCACAGTCACGCGT
DNA 2: ACGCGTGACTGTGGAATGAGAGCTGTGGAATGAGAGCTGTGGAATGAGAGCTGTGGAATGAGAGCTGTGGAATGAGAGCTGTGGAATGAGAGCTGTGGAATGAGAGCTGTGGAATGAGAGCTGTGGAATGAGAGCTGTGGAATGAACGCGT
- activity: 3 fold activation

— patent US20060063231, “Compositions and methods for protein production” (Sangamo BioSciences, Inc., published 2006)
